Measured values as given in US20260176365A1 (SYNTHEKINE, published 2026).

T1: hGP130-his (Sino Biological, Catalog# 10974) (human, UniProt P40189 23-619)
T1 construct: Bought reagent; also called extracellular domain of gp130; not shown: C-terminal poly-His tag
T1 sequence: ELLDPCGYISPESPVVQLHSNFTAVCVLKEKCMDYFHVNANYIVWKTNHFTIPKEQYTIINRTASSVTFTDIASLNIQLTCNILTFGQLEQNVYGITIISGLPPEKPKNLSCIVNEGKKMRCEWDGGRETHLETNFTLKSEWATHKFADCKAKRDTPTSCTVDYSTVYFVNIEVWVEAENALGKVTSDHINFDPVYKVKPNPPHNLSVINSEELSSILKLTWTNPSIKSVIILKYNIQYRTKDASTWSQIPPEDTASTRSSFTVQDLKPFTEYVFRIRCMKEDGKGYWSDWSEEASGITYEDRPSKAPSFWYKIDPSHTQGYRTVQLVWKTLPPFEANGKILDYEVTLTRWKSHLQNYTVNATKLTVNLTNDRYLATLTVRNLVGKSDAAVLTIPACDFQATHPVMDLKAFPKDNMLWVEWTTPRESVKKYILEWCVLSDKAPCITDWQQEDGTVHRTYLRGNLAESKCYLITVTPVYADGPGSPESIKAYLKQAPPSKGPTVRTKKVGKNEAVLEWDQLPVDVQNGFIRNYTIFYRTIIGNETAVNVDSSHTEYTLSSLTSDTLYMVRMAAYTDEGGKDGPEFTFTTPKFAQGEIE

T2: mgp130 ECD antigen (mouse, UniProt Q00560 23-617)
T2 construct: Antigen of biopanning and PE-ELISA; The immunogen was an ECD-human IgG1 hinge-Fc fusion; also called ECD of mouse gp130; ngp130 ECD antigen (so in the source)
T2 sequence: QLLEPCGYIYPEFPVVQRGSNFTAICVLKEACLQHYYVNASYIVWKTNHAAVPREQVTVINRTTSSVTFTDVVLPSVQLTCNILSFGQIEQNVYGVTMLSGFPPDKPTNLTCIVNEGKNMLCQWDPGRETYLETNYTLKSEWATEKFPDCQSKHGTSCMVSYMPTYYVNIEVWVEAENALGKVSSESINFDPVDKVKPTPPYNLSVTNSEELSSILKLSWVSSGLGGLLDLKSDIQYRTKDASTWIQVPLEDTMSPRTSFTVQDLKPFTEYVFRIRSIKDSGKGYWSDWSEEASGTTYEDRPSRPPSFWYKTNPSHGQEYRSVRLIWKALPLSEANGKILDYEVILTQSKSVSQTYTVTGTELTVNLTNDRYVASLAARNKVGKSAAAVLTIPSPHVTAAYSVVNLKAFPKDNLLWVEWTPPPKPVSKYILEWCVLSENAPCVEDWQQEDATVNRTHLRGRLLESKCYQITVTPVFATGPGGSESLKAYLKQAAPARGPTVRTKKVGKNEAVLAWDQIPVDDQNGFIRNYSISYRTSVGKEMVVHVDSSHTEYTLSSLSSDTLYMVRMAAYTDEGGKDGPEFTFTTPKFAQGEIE


These binders were tested against T1, hGP130-his (Sino Biological, Catalog# …) (assay: SPR (Biacore T200), Mono-Fc VHH captured on Protein A chip, hGP130-his in solution, 1:1 fit).
Method: A representative example from each hgp130 VHH and mgp130 VHH clonotype generated in accordance with Examples 1-3 was selected for evaluation of binding via SPR as follows. […] All experiments were conducted in 10 mM Hepes, 150 mM NaCl, 0.05% (v/v) Polysorbate 20 (PS20) and 3 mM EDTA (HBS-EP+ buffer) on a Biacore T200 instrument equipped with a Protein A derivatized sensor chip (Cytiva). Mono-Fc VHH ligands were flowed at 5 μl/min for variable time ranging from 18 to 300 seconds, reaching the capture loads listed in the tables below. Following ligand capture, […], typically comprising at least five concentrations between 1 μM and 1 nM, were performed in either high performance or single cycle kinetics mode. Surface regeneration was achieved by flowing 10 mM glycine-HCl, pH 1.5 (60 seconds, 50 μL/min). Buffer-subtracted sensograms were processed with Biacore T200 Evaluation Software and globally fit with a 1:1 Langmuir binding model (bulk shift set to zero) to extract kinetics and affinity constants (kₐ, kd, KD). RMAX<100 RU indicates surface density compatible with kinetics analysis. Calculated Rₘₐₓ values were generated using the equation: Rₘₐₓ=Load (RU)×valency of ligand×(Molecular weight of analyte/Molecular weight of ligand). Surface activity was defined as the ratio of experimental/calculated Rmax.

| Binder | Kd | koff | kon |
| --- | --- | --- | --- |
| DR593 Mono-Fc VHH (Fc fusion, Mono-Fc format is not described further; also called anti-hGP130 Mono-Fc VHH; not shown: Fc part of the Mono-Fc format) QVQLQESGGGSVQAGGSLRLSCAASGYPYSNGYMGWFRQAPGKEREGVATIYTGDGRTYYADSVKGRFTISRDNAKNTVDLQMSSLKPEDTAMYYCAARAAPLYSSGSPLTRARYNVWGQGTQVTVSS | 82 nM | 0.021 s⁻¹ | 250000 M⁻¹ s⁻¹ |
| DR591 Mono-Fc VHH (Fc fusion, Mono-Fc format is not described further; also called anti-hGP130 Mono-Fc VHH; not shown: Fc part of the Mono-Fc format) QVQLQESGGGSVQAGGSLRLSCTASGAIASGYIDSRWCMAWFRQAPGKEREGVAAIWPGGGLTVYADSVKGRFTISRDHAKNTLYLQMNNLKPEDTAMYYCAAGSPRMCPSLEFGFDYWGQGTQVTVSS | 33 nM | 0.0019 s⁻¹ | 59000 M⁻¹ s⁻¹ |
| DR592 Mono-Fc VHH (Fc fusion, Mono-Fc format is not described further; also called anti-hGP130 Mono-Fc VHH; not shown: Fc part of the Mono-Fc format) QVQLQESGGGSVQAGGSLRLSCTAPGFTSNSCGMDWYRQAPGKEREFVSSISTDGTTGYADSVKGRFTISKDKAKDTVYLQMNSLKPEDTGMYSCKTKDGTIATMELCDFGYWGQGTQVTVSS | 38 nM | 0.0059 s⁻¹ | 160000 M⁻¹ s⁻¹ |
| DR594 Mono-Fc VHH (Fc fusion, Mono-Fc format is not described further; also called anti-hGP130 Mono-Fc VHH; not shown: Fc part of the Mono-Fc format) QVQLQESGGGSVQAGGSLRLSCVASASTYCTYDMHWYRQAPGKGREFVSAIDSDGTTRYADSVKGRFTISQGTAKNTVYLQMNSLQPEDTAMYYCKTVCVVGSRWSDYWGQGTQVTVSS | 58 nM | 0.0095 s⁻¹ | 160000 M⁻¹ s⁻¹ |
| DR595 Mono-Fc VHH (Fc fusion, Mono-Fc format is not described further; also called anti-hGP130 Mono-Fc VHH; not shown: Fc part of the Mono-Fc format) QVQLQESGGGSVQAGGSLTLSCAASEYAYSTCNMGWYRQAPGKERELVSAFISDGSTYYADSVKGRFTITRDNAKNTVYLQMNSLKPEDTAIYYCSANCYRRLRNYWGQGTQVTVSS | 41 nM | 0.0073 s⁻¹ | 180000 M⁻¹ s⁻¹ |
| DR596 Mono-Fc VHH (Fc fusion, Mono-Fc format is not described further; also called anti-hGP130 Mono-Fc VHH; not shown: Fc part of the Mono-Fc format) QVQLQESGGGLVQPGGSLRLSCTASGLTFDDSVMGWFRQAPGKGREAVSCISSSGANAFYADSVKGRFTISRDNAKNTLYLQMNSLKPEDTATYYCKRGHACAGYYPIPYDDYWGQGTQVTVSS | 44 nM | 0.0082 s⁻¹ | 190000 M⁻¹ s⁻¹ |

Each binder was assayed against T2, mgp130 ECD antigen (assay: periplasmic extract ELISA (PE-ELISA) of phage clones).

| Binder | binding result |
| --- | --- |
| mgp130_VHH13 (VHH, As periplasmic extract of the phage clone; also called anti-mouse gp130 VHH; not shown: HA/His tag of the pMECS phagemid) VHH: QVQLQESGGGSVQPGGSLRLSCAASGFTFSTYDMSWVRQAPGKGLEWVSTINYSGSSTYYVDSVLGRFTIARDNAKNTLYLQMNNLQTEDTAVYYCASVKERRSNGHPIVFGDRGQGTQVTVSS | binds |
| mgp130_VHH6 (VHH, As periplasmic extract of the phage clone; also called anti-mouse gp130 VHH; not shown: HA/His tag of the pMECS phagemid) VHH: QVQLQESGGGLVQPGGSLRLSCAASGFTLSTYWMYWVRQAPGKGPEWVSAVSRGGFNTYYADSVKGRFTISRDNAKNTVYLQMNSLKPEDTAVYYCMSSVSFYGWPPDRVPSPTGQGTQVTVSS | binds |

Each binder was assayed against hGP130-his (Sino Biological, Catalog# 10974) (human) (UniProt P40189) (assay: SPR (Biacore T200), Mono-Fc VHH captured on Protein A chip, hGP130-his in solution, 1:1 fit).

| Binder | Kd | koff | kon |
| --- | --- | --- | --- |
| mgp130_VHH13 Mono-Fc VHH (Fc fusion, not shown: a dimerising Fc or GST) QVQLQESGGGSVQPGGSLRLSCAASGFTFSTYDMSWVRQAPGKGLEWVSTINYSGSSTYYVDSVLGRFTIARDNAKNTLYLQMNNLQTEDTAVYYCASVKERRSNGHPIVFGDRGQGTQVTVSS | 35.6 nM | 0.0037 s⁻¹ | 110000 M⁻¹ s⁻¹ |
| mgp130_VHH44 Mono-Fc VHH (Fc fusion, not shown: a dimerising Fc or GST) QVQLQESGGGLVQPGGSLRLSCTASGFTFNSAHLKWERQPPGKGLEWVSFITNGGASTGYADSVKGRFTISRDDAKNTLYLQMNNLKTEDTAVYYCATGGLRGQGTQVTVSS | 6 nM | 0.0012 s⁻¹ | 200000 M⁻¹ s⁻¹ |
| mgp130_VHH6 Mono-Fc VHH (Fc fusion, not shown: a dimerising Fc or GST) QVQLQESGGGLVQPGGSLRLSCAASGFTLSTYWMYWVRQAPGKGPEWVSAVSRGGFNTYYADSVKGRFTISRDNAKNTVYLQMNSLKPEDTAVYYCMSSVSFYGWPPDRVPSPTGQGTQVTVSS | 229 nM | 0.03 s⁻¹ | 130000 M⁻¹ s⁻¹ |
| mgp130_VHH48 Mono-Fc VHH (Fc fusion, not shown: a dimerising Fc or GST) QVQLQESGGALVQPGGSLRLSCAASGFTFSYYAMKWVRQAPGKGLEWVSSISGGGGATYYADSVKGRFTISRDNTNDTLYLQMNSLKTEDTAVYYCAAQNLDYRGQGTQVTVSS | 42 nM | 0.0018 s⁻¹ | 43000 M⁻¹ s⁻¹ |
| mgp130_VHH16 Mono-Fc VHH (Fc fusion, not shown: a dimerising Fc or GST) QVQLQESGGGLVQPGGSLRLSCAASGFTFRNYAMSWVRQAPGKGLEWVSAINSGGGSTYYADSVKGRFTISRDNAKNTLYLQMNSLKPEDTAMYYCAKHVTGDYDPSLRYEYNYWSQGTQVTVSS | 17.4 nM | 0.00036 s⁻¹ | 21000 M⁻¹ s⁻¹ |
| mgp130_VHH5 Mono-Fc VHH (Fc fusion, not shown: a dimerising Fc or GST) QVQLQESGGGSVQAGGSLRLSCVISGFTYRQTFMGWFRQVVGKEREGVAAISTGGGSTIYADSVKGRFTISQDSSKDTVYLEMNGLKLEDTGMYYCAASTVITSESINRNLYQYWGQGTQVTVSS | 90 nM | 0.0081 s⁻¹ | 90000 M⁻¹ s⁻¹ |
